Source: article PMC10000358, “Development of an inhibiting antibody against equine interleukin 5 to treat insect bite hypersensitivity of horses” (Scientific Reports, 2023)
“And” between values parts separate entries of the source, which are not always exact repeats. Identical values can stand only once.

T1: equine interleukin 5 with 8 × His-tag (equine (horse), UniProt O02699 20-134)
T1 chain: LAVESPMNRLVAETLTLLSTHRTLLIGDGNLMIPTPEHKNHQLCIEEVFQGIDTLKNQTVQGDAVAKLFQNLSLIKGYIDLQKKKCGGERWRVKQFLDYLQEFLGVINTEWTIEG


Experiments:
[1] = target: T2, equine interleukin 5 with 8 × His-tag (Equus caballus, UniProt O02699)
[2] = target: T3, BSA (Bos taurus, UniProt P02769); test: ELISA; unspecificity ELISA: antigens immobilised at 10 ug/mL in PBS, blocked with 2% MPBST; 100 nM eqIgG6 antibody, 1 h at RT; detected with anti horse IgG (Fc)-HRP; conditions: both partners purified
T3 construct: BSA (serum albumin), negative control coated on the plate
T3 sequence (P02769 25-607): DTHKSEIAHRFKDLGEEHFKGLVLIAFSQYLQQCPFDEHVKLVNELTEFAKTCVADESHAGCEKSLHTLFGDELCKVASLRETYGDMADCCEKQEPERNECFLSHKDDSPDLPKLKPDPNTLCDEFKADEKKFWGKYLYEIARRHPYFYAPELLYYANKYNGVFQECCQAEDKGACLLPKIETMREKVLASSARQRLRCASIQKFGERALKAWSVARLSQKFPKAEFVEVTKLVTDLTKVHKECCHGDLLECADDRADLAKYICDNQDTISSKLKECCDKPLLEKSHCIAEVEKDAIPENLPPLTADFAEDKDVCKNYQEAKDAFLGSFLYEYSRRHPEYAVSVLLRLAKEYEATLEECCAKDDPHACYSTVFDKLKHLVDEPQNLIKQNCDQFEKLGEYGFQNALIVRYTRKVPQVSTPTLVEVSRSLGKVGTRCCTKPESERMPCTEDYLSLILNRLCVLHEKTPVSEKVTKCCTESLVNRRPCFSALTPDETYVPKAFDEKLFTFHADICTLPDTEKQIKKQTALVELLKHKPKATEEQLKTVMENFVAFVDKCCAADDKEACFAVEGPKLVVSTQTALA

[3] = target: T2, equine interleukin 5 with 8 × His-tag; test: ELISA; titration ELISA: 100 ng eqIL-5/well (or 1% BSA as negative control) immobilised, blocked with 2% MPBST; eqIgG6 antibody titrated from 316 nM, 1 h at RT; detected with anti horse IgG (Fc)-HRP; EC50 by Logistic5 fit; triplicates; conditions: both partners purified
[4] = target: T2, equine interleukin 5 with 8 × His-tag; test: flow cytometry on cells; competitive cellular inhibition assay: no pre-incubation; 1000 nM-0.1 nM antibody first put on 5 x 10^5 receptor expressing cells, then 5 nM eqIL-5 (related to dimer) added for 45 min on ice; detection as before; conditions: both partners purified
[5] = target: T2, equine interleukin 5 with 8 × His-tag; test: flow cytometry on cells; cellular in vitro inhibition assay: antibody (screening 1000 nM; titration 1000 nM-0.32 nM) pre-incubated with 5 nM eqIL-5 (related to dimer), then added to 5 x 10^5 eqIL-5 receptor expressing Expi293F cells for 45 min on ice, FACS buffer (2% FCS, 5 mM EDTA in PBS); bound eqIL-5 detected by Penta-His antibody and anti mouse Fc-APC; IC50 by Logistic5 fit; single measurements; conditions: both partners purified
[6] = target: T1, equine interleukin 5 with 8 × His-tag; test: ELISA
[7] = target: T3, BSA; test: ELISA; titration ELISA: 100 ng eqIL-5/well (or 1% BSA as negative control) immobilised, blocked with 2% MPBST; eqIgG6 antibody titrated from 316 nM, 1 h at RT; detected with anti horse IgG (Fc)-HRP; EC50 by Logistic5 fit; triplicates; conditions: both partners purified

Binder | binding result [1] | EC50 [3] | IC50 [5] | EC50 [6] | binding result [7] | also measured
NOL226-2-D1 (antibody, V domains shown) VH: EVQLVETGGGVVRPGRSLRLSCAASGFTFSSYGMHWVRQAPGKGLEWVAVISYDGSNKYYADSVKGRFTISRDNSKNTLYLQMNSLRAEDTAVYYCVKGFKIQLWFAAFDIWGQGTMVTVSS VL: QSVLTQPPSVSVAPGQTARITCGGNNIGSKSVHWYQQKPGQAPVLVVYDDSDRPSGIPERFSGSNSGNTATLTIGRVESGDEADYYCQVWDSSSDPVVFGGGTKLTVL | binds |  |  |  |  | 
NOL229-C3 (antibody, V domains shown) VH: EVQLVETGGGVVQPGRSLRLSCAASGFTFRSYGMHWVRQAPGKGLEWVAVISNDGSNKYYADSVKGRFTISRDNSKNTLYLQMNSLRAEDTAVYYCAKGFKIQLWFAAFDIWGQGAMVTVSS VL: QSVLTQPPSVSVAPGQTARITCGGNNIGSKSVHWYQQKPGQAPVLVVYDDSDRPSGIPERFSGSNTGNTATLTISRVEAGDEADYYCQVWDSSSDPVVFGGGTKLTVL | binds |  |  |  |  | 
NOL226-2-G9 (antibody, V domains shown) VH: EVQLEETGGGVVQPGRSLRLSCAASGFTFGSYGMHWVRQAPGKGLEWVAVISYDGSNKYYADSVKGRFTISRDNSKNTLYLQMNSLRAEDTAVYYCAKGFKIQLWFAAFDIWGQGTMVTVSS VL: QSVLTQPPSISVAPGQTARITCGGNNIGSKSVHWYHQKPGQAPVLVVYDDSDRPSGIPERFSGSNSGNTATLTISRVEAGDEADYYCQVWDSSSDPVVFGGGTKLTVL | binds |  |  |  |  | 
NOL162-1-F5 (eqIgG6 format) (antibody, V domains shown, human VH of NOL162-1-F5 (selected from HAL9/10); human VL of NOL162-1-F5; Chimeric IgG: human VH and VL, all constant domains equine (IgG6); Selected by panning in MTP; also called parental antibody; parAB; source: Expi293F suspension cells, purified (HiTrap Fibro PrismA or Protein G HP)) VH: EVQLVETGGGVVQPGRSLRLSCAASGFTFSSYGMHWVRQAPGKGLEWVAVISYDGSNKYYADSVKGRFTISRDNSKNTLYLQMNSLRAEDTAVYYCAKGFKIQLWFAAFDIWGQGTMVTVSS VL: QSVLTQPPSVSVAPGQTARITCGGNNIGSKSVHWYQQKPGQAPVLVVYDDSDRPSGIPERFSGSNSGNTATLTISRVEAGDEADYYCQVWDSSSDPVVFGGGTKLTVL |  | 9 nM | 7 nM and 12 nM |  |  | binding result [2]: no binding (tested: 100 nM); IC50 [4]: 15 nM
NOL226-2-D10 (eqIgG6 format) (antibody, V domains shown, as the VH of m4 (NOL162-1-F5) with A97V and F100L, both in the CDR3 of the VH; as the VL of m4 (NOL162-1-F5); also called final antibody; final candidate; source: Expi293F suspension cells, purified (HiTrap Fibro PrismA or Protein G HP)) VH: EVQLVETGGGVVQPGRSLRLSCAASGFTFSSYGMHWVRQAPGKGLEWVAVISYDGSNKYYADSVKGRFTISRDNSKNTLYLQMNSLRAEDTAVYYCVKGLKIQLWFAAFDIWGQGTMVTVSS VL: QSVLTQPPSVSVAPGQTARITCGGNNIGSKSVHWYQQKPGQAPVLVVYDDSDRPSGIPERFSGSNSGNTATLTISRVEAGDEADYYCQVWDSSSDPVVFGGGTKLTVL |  | 8.8 nM | 4 nM |  |  | binding result [2]: no binding (tested: 100 nM); IC50 [4]: 9 nM
NOL225-2-F10 (antibody, V domains shown) VH: QVQLQQSGGGVVQPGRSLRLSCAASGFTFSSYGMHWVRQAPGKGLEWVAVIWYDGSNKYYADSVKGRFTISRDNSKNTLYLQINSLRAEDTAVYYCARGLYGRSYFDYWGQGTLVTVSS VL: SYELTQPPSVSVAPGQTAKIVCEGDNIGSKSVHWYQQRPGQAPVLVVYDDTDRPSGIPDRFSGSNSGNTATLTISRVEVGDEADYYCQVWDSGDGHPRVFGGGTKLTVL | binds |  |  |  |  | 
NOL231-2-E2 (eqIgG6 format) (antibody, V domains shown, source: Expi293F suspension cells, purified (HiTrap Fibro PrismA or Protein G HP)) VH: QVQLQQSEGGVVQPGRSLRLSCAASGFTFSSYGMHWVRQAPGKGLEWLAVIWYDGSNKYYADSVKGRFTISRDNSKNTLYLQMNSLRAEDTAVYYCARGLFGRSYFDYWGQGTLVTVSS VL: SYELTQPPSVSVAPGQTAKITCEGDNIGSKSVHWYQQRPGQAPVLVVYDDTDRPSGIPDRFSGSNSGNTATLTISRVEVGDEADYYCQVWDSGDGHPRVFGGGTKLTVL |  |  | 3 nM | 0.5 nM | no binding (tested: 316 nM) | 
NOL225-2-C1 (eqIgG6 format) (antibody, V domains shown, source: Expi293F suspension cells, purified (HiTrap Fibro PrismA or Protein G HP)) VH: QVQLQQSGGGVVQPGRSLRLSCAASGFTFSSYGMHWVRQAPGKGLEWVAVIWYDGRNKYYADSVKGRFTISRDNSKNTLYLQMNSLRAEDTAVYYCARGLFGRSYFDYWGQGTLVTVSS VL: SYELTQPPSMSVAPGQTARIACEGDNIGSKSVHWYQQRPGQAPVLVVFDDTDRPSGIPDRFSGSNSGNTATLTISRVEVGDEADYYCQVWDSGDGHPRVFGGGTKLTVL |  |  | 4 nM | 0.4 nM | no binding (tested: 316 nM) | 
NOL48-1-D5 (eqIgG6 format) (antibody, V domains shown, human VH of NOL48-1-D5 (selected from HAL9/10); human VL of NOL48-1-D5; Chimeric IgG: human VH and VL, all constant domains equine (IgG6); Selected by panning in solution; also called parental antibody; parAB; source: Expi293F suspension cells, purified (HiTrap Fibro PrismA or Protein G HP)) VH: QVQLQQSGGGVVQPGRSLRLSCAASGFTFSSYGMHWVRQAPGKGLEWVAVIWYDGSNKYYADSVKGRFTISRDNSKNTLYLQMNSLRAEDTAVYYCARGLYGRSYFDYWGQGTLVTVSS VL: SYELTQPPSVSVAPGQTAKIACEGDNIGSKSVHWYQQRPGQAPVLVVYDDTDRPSGIPDRFSGSNSGNTATLTISRVEVGDEADYYCQVWDSGDGHPRVFGGGTKLTVL |  | 1 nM | 6 nM and 12 nM |  | no binding (tested: 316 nM) | 
NOL231-1-A3 (eqIgG6 format) (antibody, V domains shown, as the VH of m3 (NOL48-1-D5); as the VL of m3 (NOL48-1-D5) with H96N in the CDR3 of the VL; source: Expi293F suspension cells, purified (HiTrap Fibro PrismA or Protein G HP)) VH: QVQLQQSGGGVVQPGRSLRLSCAASGFTFSSYGMHWVRQAPGKGLEWVAVIWYDGSNKYYADSVKGRFTISRDNSKNTLYLQMNSLRAEDTAVYYCARGLYGRSYFDYWGQGTLVTVSS VL: SYELTQPPSVSVAPGQTAKIACEGDNIGSKSVHWYQQRPGQAPVLVVYDDTDRPSGIPDRFSGSNSGNTATLTISRVEVGDEADYYCQVWDSGDGNPRVFGGGTKLTVL |  |  | 4 nM | 0.5 nM | no binding (tested: 316 nM) | 
